Results taken from patent US20260209350A1 (Alector, published 2026).

T1: human TREM2 Fc fusion protein (human, UniProt Q9NZC2 19-174)
T1 construct: also called hTREM2-Fc; not shown: Fc part not specified
T1 sequence: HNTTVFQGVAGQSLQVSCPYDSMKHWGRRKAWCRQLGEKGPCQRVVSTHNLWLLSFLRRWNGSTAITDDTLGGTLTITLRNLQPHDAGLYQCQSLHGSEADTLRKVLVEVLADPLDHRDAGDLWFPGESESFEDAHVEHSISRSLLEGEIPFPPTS

T2: mouse TREM2 Fc fusion protein (mouse, UniProt Q99NH8 19-171)
T2 construct: also called mTREM2-Fc; not shown: Fc part not specified
T2 sequence (looked up): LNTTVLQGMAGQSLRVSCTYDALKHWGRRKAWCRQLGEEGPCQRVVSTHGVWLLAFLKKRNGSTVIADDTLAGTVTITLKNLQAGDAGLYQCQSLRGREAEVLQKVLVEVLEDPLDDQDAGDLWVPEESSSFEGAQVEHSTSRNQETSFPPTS

T3: human monomeric His tagged TREM2 protein (human, UniProt Q9NZC2 19-174)
T3 construct: also called hTREM2-HIS
T3 sequence: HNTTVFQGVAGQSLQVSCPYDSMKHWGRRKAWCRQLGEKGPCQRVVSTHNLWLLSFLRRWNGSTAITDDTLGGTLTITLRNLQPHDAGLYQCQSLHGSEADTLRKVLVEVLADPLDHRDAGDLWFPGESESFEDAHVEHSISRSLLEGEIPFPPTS

T4: mouse TREM2 on cells (mouse, UniProt Q99NH8 19-227)
T4 construct: whole, on cells; Used for the recombinant protein on BWZ/BW cells (with mouse DAP12) and for the native protein on mouse macrophages and dendritic cells; the cell type stands under assay; also called mTREM2; mTrem2
T4 sequence (looked up): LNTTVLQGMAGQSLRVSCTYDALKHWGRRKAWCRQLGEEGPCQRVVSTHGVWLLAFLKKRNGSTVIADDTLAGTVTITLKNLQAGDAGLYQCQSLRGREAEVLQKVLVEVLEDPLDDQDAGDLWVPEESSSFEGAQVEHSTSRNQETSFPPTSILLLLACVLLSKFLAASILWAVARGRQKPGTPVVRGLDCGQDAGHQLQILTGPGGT


Key:
[1] = molecular target: T1, human TREM2 Fc fusion protein; assay: ForteBio or MSD-SET, avid
[2] = molecular target: T2, mouse TREM2 Fc fusion protein; assay: ForteBio or MSD-SET, avid
[3] = molecular target: T3, human monomeric His tagged TREM2 protein; assay: ForteBio or MSD-SET, monovalent
mouse TREM2 on cells = molecular target: T4, mouse TREM2 on cells; assay: FACS, mTrem2 cells

Binder | Kd [1] [nM] | Kd [2] [nM] | Kd [3] [nM] | MFI (mouse TREM2 on cells) [MFI] | binding result [2]
Ab12 (antibody, human IgG1, V domains shown, human IgG1) VH: EVQLVQSGAEVKKPGESLKISCKGSGYSFTSYWIGWVRQMPGKGLEWMGIIYPGDSDTRYSPSFQGQVTISADKSISTAYLQWSSLKASDTAMYYCARLGHYSGTVSSYGMDVWGQGTTVTVSS VL: DIQMTQSPSSLSASVGDRVTITCRASQSISSYLNWYQQKPGKAPKLLIYAASSLQSGVPSRFSGSGSGTDFTLTISSLQPEDFATYYCQQEYAVPYTFGGGTKVEIK | 1.19 | 7.91 | 2.68 | 1550 | 
Ab34 (antibody, human IgG1, V domains shown, human IgG1) VH: QVQLVESGGGVVQPGRSLRLSCAASGFTFSSYGMHWVRQAPGKGLEWVAVISYDGSNKYYADSVKGRFTISRDNSKNTLYLQMNSLRAEDTAVYYCARDRGGEYVDFAFDIWGQGTMVTVSS VL: DIQMTQSPSSLSASVGDRVTITCRASQSISSYLNWYQQKPGKAPKLLIYAASSLQSGVPSRFSGSGSGTDFTLTISSLQPEDFATYYCQQSDFPPWTFGGGTKVEIK | 0.706 |  | 27 |  | no binding
Ab54 (antibody, human IgG1, V domains shown, human IgG1) VH: QVQLVQSGAEVKKPGASVKVSCKASGYTFTSYYMHWVRQAPGQGLEWMGIINPSGGSTSYAQKFQGRVTMTRDTSTSTVYMELSSLRSEDTAVYYCARGPGYTTALDYYYMDVWGKGTTVTVSS VL: DIQMTQSPSSLSASVGDRVTITCRASQSINSYLNWYQQKPGKAPKLLIYAASSLQSGVPSRFSGSGSGTDFTLTISSLQPEDFATYYCQQSDDDPFTFGGGTKVEIK | 0.5 |  | 3.02 |  | 
Ab31 (antibody, human IgG1, V domains shown, human IgG1) VH: QVQLVESGGGVVQPGRSLRLSCAASGFTFSSYGMHWVRQAPGKGLEWVALIWYDGSNKYYADSVKGRFTISRDNSKNTLYLQMNSLRAEDTAVYYCARRRDGYYDEVFDIWGQGTMVTVSS VL: DIQLTQSPSSLSASVGDRVTITCQASQDISNFLNWYQQKPGKAPKLLIYDASNLETGVPSRFSGSGSGTDFTFTISSLQPEDIATYYCQQPVDLPFTFGGGTKVEIK | 0.451 |  | 6.82 |  | no binding
Ab3 (antibody, human IgG1, V domains shown, human IgG1) VH: QVQLVQSGAEVKKPGSSVKVSCKASGGTFSSYAISWVRQAPGQGLEWMGGIIPIFGTANYAQKFQGRVTITADESTSTAYMELSSLRSEDTAVYYCAREQYHVGMDVWGKGTTVTVSS VL: DIQMTQSPSSLSASVGDRVTITCQASQDISNYLNWYQQKPGKAPKLLIYDASNLATGVPSRFSGSGSGTDFTFTISSLQPEDIATYYCQQPFNFPYTFGGGTKVEIK | 0.49 |  | 14.2 |  | no binding
Ab72 (antibody, human IgG1, V domains shown, human IgG1) VH: QVQLQESGPGLVKPSETLSLTCTVSGGSISSYYWSWIRQPPGKGLEWIGSIYYSGSTNYNPSLKSRVTISVDTSKNQFSLKLSSVTAADTAVYYCARSGTETLFDYWGQGTLVTVSS VL: DIQMTQSPSSLSASVGDRVTITCQASQDITNYLNWYQQKPGKAPKLLIYDASNLETGVPSRFSGSRSGTDFTFTISSLQPEDIATYYCQQDVNYPPTFGGGTKVEIK | 0.839 |  | 29.4 | 3750 | 
Ab64 (antibody, human IgG1, V domains shown, human IgG1) VH: EVQLVQSGAEVKKPGESLKISCKGSGYSFTSYWIGWVRQMPGKGLEWMGIIYPGDSDTRYSPSFQGQVTISADKSISTAYLQWSSLKASDTAMYYCARLGRWSSGSTAFDIWGQGTMVTVSS VL: EIVMTQSPATLSVSPGERATLSCRASQSVSSNLAWYQQKPGQAPRLLIYGASTRATGIPARFSGSGSGTEFTLTISSLQSEDFAVYYCQQDDDGYTFGGGTKVEIK | 0.945 |  | 65.7 | 8680 | 
Ab10 (antibody, human IgG1, V domains shown, human IgG1) VH: EVQLVQSGAEVKKPGESLKISCKGSGYSFTSNWIGWVRQMPGKGLEWMGIIYPGDSDTRYSPSFQGQVTISADKSISTAYLQWSSLKASDTAMYYCAREAGYDYGELAFDIWGQGTMVTVSS VL: not shown | 0.544 |  | 4.79 | 11500 | 
Ab11 (antibody, human IgG1, V domains shown, human IgG1) VH: EVQLVQSGAEVKKPGESLKISCKGSGYSFTTYWIGWVRQMPGKGLEWMGIIYPGDSDTRYSPSFQGQVTISADKSISTAYLQWSSLKASDTAMYYCARAGHYDGGHLGMDVWGQGTTVTVSS VL: EIVLTQSPGTLSLSPGERATLSCRASQSVSSDYLAWYQQKPGQAPRLLIYGASSRATGIPDRFSGSGSGTDFTLTISRLEPEDFAVYYCQQDYSYPWTFGGGTKVEIK | 0.934 | 1.19 | 7.2 | 5500 | 
Ab20 (antibody, human IgG1, V domains shown, human IgG1) VH: QVQLQESGPGLVKPSETLSLTCTVSGGSISSYYWSWIRQPPGKGLEWIGSIYYSGSTNYNPSLKSRVTISVDTSKNQFSLKLSSVTAADTAVYYCARSGMASFFDYWGQGTLVTVSS VL: EIVLTQSPGTLSLSPGERATLSCRASQSVSSDYLAWYQQKPGQAPRLLIYGASSRATGIPDRFSGSGSGTDFTLTISRLEPEDFAVYYCQQFSSHPFTFGGGTKVEIK | 0.658 |  | 3.62 | 11200 | 
Ab4 (antibody, human IgG1, V domains shown, human IgG1) VH: QVQLVQSGAEVKKPGSSVKVSCKASGGTFSSYAISWVRQAPGQGLEWMGGIIPIFGTASYAQKFQGRVTITADESTSTAYMELSSLRSEDTAVYYCARGVDSIMDYWGQGTLVTVSS VL: EIVMTQSPATLSVSPGERATLSCRASQSVSSNLAWYQQKPGQAPRLLIYSASTRATGIPARFSGSGSGTEFTLTISSLQSEDFAVYYCQQDHDYPFTFGGGTKVEIK | 0.971 |  |  | 295 | no binding
Ab26 (antibody, human IgG1, V domains shown, human IgG1) VH: not shown VL: EIVLTQSPATLSLSPGERATLSCRASQSVSSYLAWYQQKPGQAPRLLIYDASNRATGIPARFSGSGSGTDFTLTISSLEPEDFAVYYCQQEFDLPFTFGGGTKVEIK | 0.481 |  | 3.6 |  | 
Ab6 (antibody, human IgG1, V domains shown, human IgG1) VH: QVQLVQSGAEVKKPGASVKVSCKASGYTFTSYYMHWVRQAPGQGLEWMGIINPGGGSTSYAQKFQGRVTMTRDTSTSTVYMELSSLRSEDTAVYYCARGSPTYGYLYDPWGQGTLVTVSS VL: EIVLTQSPATLSLSPGERATLSCRASQSVSSYLAWYQQKPGQAPRLLIYDASKRATGIPARFSGSGSGTDFTLTISSLEPEDFAVYYCQQRVNLPPTFGGGTKVEIK | 4.44 | 8.51 |  | 228 | 
Ab33 (antibody, human IgG1, V domains shown, human IgG1) VH: QVQLVESGGGVVQPGRSLRLSCAASGFTFSSYGMHWVRQAPGKGLEWVAVISYDGSNKYYADSVKGRFTISRDNSKNTLYLQMNSLRAEDTAVYYCARAGGHLFDYWGQGTLVTVSS VL: EIVLTQSPATLSLSPGERATLSCRASQSVSSYLAWYQQKPGQAPRLLIYDASNRATGIPARFSGSGSGTDFTLTISSLEPEDFAVYYCQQDSSFPPTFGGGTKVEIK | 1.42 |  | 16 |  | no binding
Ab62 (antibody, human IgG1, V domains shown, human IgG1) VH: EVQLVQSGAEVKKPGESLKISCKGSGYSFTSYWIGWVRQMPGKGLEWMGIIYPGDSDTRYSPSFQGQVTISADKSISTAYLQWSSLKASDTAMYYCARAGHYDDWSGLGLDVWGQGTMVTVSS VL: EIVLTQSPATLSLSPGERATLSCRASQSVSSYLAWYQQKPGQAPRLLIYDASKRATGIPARFSGSGSGTDFTLTISSLEPEDFAVYYCQQSSVHPYTFGGGTKVEIK | 0.772 |  | 14.2 | 4750 | 
Ab18 (antibody, human IgG1, V domains shown, human IgG1) VH: QVQLQESGPGLVKPSETLSLTCTVSGGSISSYYWSWIRQPPGKGLEWIGSIYYSGSTNYNPSLKSRVTISVDTSKNQFSLKLSSVTAADTAVYYCARDGGGEYPSGTPFDIWGQGTMVTVSS VL: not shown | 0.513 |  | 6.77 | 5160 | 
Ab19 (antibody, human IgG1, V domains shown, human IgG1) VH: QVQLQESGPGLVKPSETLSLTCTVSGGSISSYYWSWIRQPPGKGLEWIGSIYYSGSTNYNPSLKSRVTISVDTSKNQFSLKLSSVTAADTAVYYCARDGGGEYPSGTPFDIWGQGTMVTVSS VL: not shown | 0.465 |  | 4.49 | 2300 | 
Ab51 (antibody, human IgG1, V domains shown, human IgG1) VH: QVQLVQSGAEVKKPGASVKVSCKASGYTFTSYYMHWVRQAPGQGLEWMGIINPSGGSTSYAQKFQGRVTMTRDTSTSTVYMELSSLRSEDTAVYYCARGVGGQDYYYMDVWGKGTTVTVSS VL: DIQMTQSPSSLSASVGDRVTITCRASQSISSYLNWYQQKPGKAPKLLIYAASSLQSGVPSRFSGSGSGTDFTLTISSLQPEDFATYYCQQFDDVFTFGGGTKVEIK | 0.284 |  | 1.64 |  | 
